Results from the supplement of paper PMC10065799, “High-throughput profiling of sequence recognition by tyrosine kinases and SH2 domains using bacterial peptide display” (eLife, 2023).

These sequences were tested against FGFR3 (UniProt P22607) (assay: phosphorylation enrichment, bacterial display (enrichment ratio); higher = better substrate or ligand; peptides without Tyr show the background).
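Further: 11-residue human phosphosite peptides and single-mutation variants displayed on the E. coli surface, counted by deep sequencing, each peptide's frequency after selection divided by its frequency in the unselected input library; frequency after pTyr selection over input frequency; kinase dosed for 20-30% of maximal phosphorylation in three min.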

Sequence of FGFR3 (P22607 whole entry, looked up): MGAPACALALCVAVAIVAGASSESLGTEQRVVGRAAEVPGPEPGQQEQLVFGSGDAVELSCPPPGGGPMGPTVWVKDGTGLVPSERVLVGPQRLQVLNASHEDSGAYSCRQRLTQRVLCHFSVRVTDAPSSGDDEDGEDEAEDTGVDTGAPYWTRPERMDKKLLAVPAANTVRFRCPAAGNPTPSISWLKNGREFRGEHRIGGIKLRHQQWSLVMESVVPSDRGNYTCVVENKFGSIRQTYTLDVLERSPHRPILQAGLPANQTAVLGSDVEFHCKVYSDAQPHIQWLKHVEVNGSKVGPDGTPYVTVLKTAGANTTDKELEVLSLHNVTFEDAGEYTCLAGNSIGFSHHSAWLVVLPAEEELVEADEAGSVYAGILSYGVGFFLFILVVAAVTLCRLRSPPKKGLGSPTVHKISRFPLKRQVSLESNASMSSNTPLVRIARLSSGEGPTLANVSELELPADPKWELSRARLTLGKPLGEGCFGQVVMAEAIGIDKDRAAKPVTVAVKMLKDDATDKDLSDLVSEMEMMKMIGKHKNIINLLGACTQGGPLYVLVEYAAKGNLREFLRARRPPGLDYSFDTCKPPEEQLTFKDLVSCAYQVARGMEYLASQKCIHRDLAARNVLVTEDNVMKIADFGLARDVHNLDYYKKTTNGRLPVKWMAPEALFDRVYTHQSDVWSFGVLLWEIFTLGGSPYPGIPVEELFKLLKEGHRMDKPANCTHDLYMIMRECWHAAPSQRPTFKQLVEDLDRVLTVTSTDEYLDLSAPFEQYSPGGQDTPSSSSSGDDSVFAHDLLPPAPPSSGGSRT

Row | Sequence | phosphorylation enrichment
1 | AIFEGYALPHA [ACTC1_Y171_P166A_YF] | 0.535
2 | EVEPRYVVLYD [ERCC4_Y577] | 0.986
3 | RHCSGYVLIAM [EFR3A_Y73_R70C] | 0.669
4 | SRGSSYSSIPK [FLNC_Y2625] | 0.362
5 | CTHDLYMFMRE [FGFR3_Y724_I726F] | 1.45
6 | NIEPVYLNMLL [ATR_Y317] | 5.81
7 | RIGRKYKKVRF [F8_Y442] | 0.364
8 | KTGNIYRTEFG [MRPL3_Y265_M261T_YF] | 0.491
9 | KSVSQYLEMDK [CAGE1_Y438] | 0.537
10 | YETDYYQKGGK [INSR_Y1190_R1191Q] | 0.907
11 | FADIAYNYRHR [PAH_Y166_G171R] | 0.435
12 | EASGIYVKSVI [PATJ_Y396_I400V] | 0.741
13 | YYHCTYKQRMI [CLEC12A_Y242_K244Q] | 7.01
14 | VFSIDYFRVGG [NTRK2_Y706_T704I_YF] | 2.94
15 | PGGKIYISPLK [RB1_Y805_N803K] | 0.583
16 | LGGSPYPGVPV [FGFR1_Y701] | 0.463
17 | CTTIHYNNMCN [TP53_Y234_Y236N] | 0.538
18 | GESLTYASTTF [C1orf162_Y120] | 0.408
19 | ENFSEYQEISV [HEMGN_Y150_A154S] | 1.53
20 | SSYSRYIMMPN [LEF1_Y114_G113R] | 1.3
21 | GKSDPYHATSG [GJA1_Y247] | 0.402
22 | NVFGNYNNQSS [HNRNPA1_Y318_D314V] | 0.546
23 | VKFLGYPPPEI [KDR_Y357_A352V_YF] | 0.555
24 | GFVEDYRPPFY [ACVRL1_Y421_I417F] | 0.754
25 | RRRLIYRCQVG [NR2E3_Y81] | 0.601
26 | FVHDNYVIWRT [CPS1_Y1450_R1453W] | 1.8
27 | STLEVYRCHPP [IL21R_Y317_S318R] | 0.901
28 | MRTMGYMPREM [CABP5_Y62_T65R] | 0.508

These sequences were tested on Fer (mouse) in the same assay as above.

Row | Sequence | phosphorylation enrichment
29 | AIFEGYALPHA [ACTC1_Y171_P166A_YF] | 0.605
30 | EVEPRYVVLYD [ERCC4_Y577] | 0.547
31 | RHCSGYVLIAM [EFR3A_Y73_R70C] | 0.501
32 | SRGSSYSSIPK [FLNC_Y2625] | 0.37
33 | CTHDLYMFMRE [FGFR3_Y724_I726F] | 0.994
34 | NIEPVYLNMLL [ATR_Y317] | 10.5
35 | RIGRKYKKVRF [F8_Y442] | 0.298
36 | KTGNIYRTEFG [MRPL3_Y265_M261T_YF] | 0.35
37 | KSVSQYLEMDK [CAGE1_Y438] | 0.424
38 | YETDYYQKGGK [INSR_Y1190_R1191Q] | 0.573
39 | FADIAYNYRHR [PAH_Y166_G171R] | 0.436
40 | EASGIYVKSVI [PATJ_Y396_I400V] | 0.481
41 | YYHCTYKQRMI [CLEC12A_Y242_K244Q] | 0.452
42 | VFSIDYFRVGG [NTRK2_Y706_T704I_YF] | 0.484
43 | PGGKIYISPLK [RB1_Y805_N803K] | 0.441
44 | LGGSPYPGVPV [FGFR1_Y701] | 0.413
45 | CTTIHYNNMCN [TP53_Y234_Y236N] | 0.404
46 | GESLTYASTTF [C1orf162_Y120] | 0.52
47 | ENFSEYQEISV [HEMGN_Y150_A154S] | 1.42
48 | SSYSRYIMMPN [LEF1_Y114_G113R] | 0.552
49 | GKSDPYHATSG [GJA1_Y247] | 0.381
50 | NVFGNYNNQSS [HNRNPA1_Y318_D314V] | 0.448
51 | VKFLGYPPPEI [KDR_Y357_A352V_YF] | 0.427
52 | GFVEDYRPPFY [ACVRL1_Y421_I417F] | 0.541
53 | RRRLIYRCQVG [NR2E3_Y81] | 0.587
54 | FVHDNYVIWRT [CPS1_Y1450_R1453W] | 1.26
55 | STLEVYRCHPP [IL21R_Y317_S318R] | 0.49
56 | MRTMGYMPREM [CABP5_Y62_T65R] | 0.411

Each sequence was assayed against Fes (UniProt P07332) in the same assay as above.
Sequence of Fes (P07332 whole entry, looked up): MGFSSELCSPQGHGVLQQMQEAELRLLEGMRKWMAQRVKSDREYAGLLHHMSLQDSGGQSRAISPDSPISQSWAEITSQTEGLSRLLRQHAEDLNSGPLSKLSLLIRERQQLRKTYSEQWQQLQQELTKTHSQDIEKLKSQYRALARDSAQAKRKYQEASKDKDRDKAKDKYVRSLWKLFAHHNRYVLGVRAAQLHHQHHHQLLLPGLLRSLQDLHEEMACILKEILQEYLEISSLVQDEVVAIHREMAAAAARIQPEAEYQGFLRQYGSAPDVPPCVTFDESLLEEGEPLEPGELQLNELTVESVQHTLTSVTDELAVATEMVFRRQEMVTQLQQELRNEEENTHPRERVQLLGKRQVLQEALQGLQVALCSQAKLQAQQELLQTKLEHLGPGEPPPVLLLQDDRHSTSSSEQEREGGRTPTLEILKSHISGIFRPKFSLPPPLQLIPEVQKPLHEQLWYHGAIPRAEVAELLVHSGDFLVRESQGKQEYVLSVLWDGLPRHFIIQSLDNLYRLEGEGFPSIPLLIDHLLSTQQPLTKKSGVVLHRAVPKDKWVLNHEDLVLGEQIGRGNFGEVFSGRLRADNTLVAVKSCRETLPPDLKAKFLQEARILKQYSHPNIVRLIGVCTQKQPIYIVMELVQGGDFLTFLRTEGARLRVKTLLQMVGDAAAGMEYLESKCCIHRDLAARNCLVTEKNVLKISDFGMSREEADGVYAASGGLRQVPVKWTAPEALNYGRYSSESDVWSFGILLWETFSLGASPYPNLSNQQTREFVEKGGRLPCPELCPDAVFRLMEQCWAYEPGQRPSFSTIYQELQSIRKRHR

Row | Sequence | phosphorylation enrichment
57 | AIFEGYALPHA [ACTC1_Y171_P166A_YF] | 0.801
58 | EVEPRYVVLYD [ERCC4_Y577] | 1.13
59 | RHCSGYVLIAM [EFR3A_Y73_R70C] | 0.879
60 | SRGSSYSSIPK [FLNC_Y2625] | 0.518
61 | CTHDLYMFMRE [FGFR3_Y724_I726F] | 1.56
62 | NIEPVYLNMLL [ATR_Y317] | 1.48
63 | RIGRKYKKVRF [F8_Y442] | 0.341
64 | KTGNIYRTEFG [MRPL3_Y265_M261T_YF] | 0.542
65 | KSVSQYLEMDK [CAGE1_Y438] | 0.803
66 | YETDYYQKGGK [INSR_Y1190_R1191Q] | 0.919
67 | FADIAYNYRHR [PAH_Y166_G171R] | 0.687
68 | EASGIYVKSVI [PATJ_Y396_I400V] | 1.1
69 | YYHCTYKQRMI [CLEC12A_Y242_K244Q] | 1.01
70 | VFSIDYFRVGG [NTRK2_Y706_T704I_YF] | 1.08
71 | PGGKIYISPLK [RB1_Y805_N803K] | 0.794
72 | LGGSPYPGVPV [FGFR1_Y701] | 0.881
73 | CTTIHYNNMCN [TP53_Y234_Y236N] | 0.943
74 | GESLTYASTTF [C1orf162_Y120] | 0.551
75 | ENFSEYQEISV [HEMGN_Y150_A154S] | 1.39
76 | SSYSRYIMMPN [LEF1_Y114_G113R] | 0.637
77 | GKSDPYHATSG [GJA1_Y247] | 0.508
78 | NVFGNYNNQSS [HNRNPA1_Y318_D314V] | 0.537
79 | VKFLGYPPPEI [KDR_Y357_A352V_YF] | 0.974
80 | GFVEDYRPPFY [ACVRL1_Y421_I417F] | 1.13
81 | RRRLIYRCQVG [NR2E3_Y81] | 1.05
82 | FVHDNYVIWRT [CPS1_Y1450_R1453W] | 1.16
83 | STLEVYRCHPP [IL21R_Y317_S318R] | 1.25
84 | MRTMGYMPREM [CABP5_Y62_T65R] | 0.594

What follows are sequences tested against Fyn (UniProt P06241) in the same assay as above.
Sequence of Fyn (P06241 whole entry, looked up): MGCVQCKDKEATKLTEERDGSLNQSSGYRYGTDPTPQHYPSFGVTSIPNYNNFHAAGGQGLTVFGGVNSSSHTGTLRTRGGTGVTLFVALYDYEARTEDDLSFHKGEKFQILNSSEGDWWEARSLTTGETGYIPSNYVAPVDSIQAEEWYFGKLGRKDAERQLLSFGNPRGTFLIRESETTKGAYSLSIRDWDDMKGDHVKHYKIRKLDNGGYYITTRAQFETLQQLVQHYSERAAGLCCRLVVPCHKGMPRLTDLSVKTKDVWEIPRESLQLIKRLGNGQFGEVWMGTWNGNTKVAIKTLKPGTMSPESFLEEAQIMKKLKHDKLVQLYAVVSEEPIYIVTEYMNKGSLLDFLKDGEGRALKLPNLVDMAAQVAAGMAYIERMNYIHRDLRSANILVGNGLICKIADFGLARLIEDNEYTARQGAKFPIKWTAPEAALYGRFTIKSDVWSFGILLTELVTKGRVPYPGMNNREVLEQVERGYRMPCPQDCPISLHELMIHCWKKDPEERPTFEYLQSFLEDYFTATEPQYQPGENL

Row | Sequence | phosphorylation enrichment
85 | AIFEGYALPHA [ACTC1_Y171_P166A_YF] | 0.472
86 | EVEPRYVVLYD [ERCC4_Y577] | 0.664
87 | RHCSGYVLIAM [EFR3A_Y73_R70C] | 0.376
88 | SRGSSYSSIPK [FLNC_Y2625] | 0.358
89 | CTHDLYMFMRE [FGFR3_Y724_I726F] | 0.584
90 | NIEPVYLNMLL [ATR_Y317] | 6.88
91 | RIGRKYKKVRF [F8_Y442] | 0.36
92 | KTGNIYRTEFG [MRPL3_Y265_M261T_YF] | 0.437
93 | KSVSQYLEMDK [CAGE1_Y438] | 0.414
94 | YETDYYQKGGK [INSR_Y1190_R1191Q] | 0.519
95 | FADIAYNYRHR [PAH_Y166_G171R] | 0.27
96 | EASGIYVKSVI [PATJ_Y396_I400V] | 0.433
97 | YYHCTYKQRMI [CLEC12A_Y242_K244Q] | 0.693
98 | VFSIDYFRVGG [NTRK2_Y706_T704I_YF] | 0.535
99 | PGGKIYISPLK [RB1_Y805_N803K] | 0.513
100 | LGGSPYPGVPV [FGFR1_Y701] | 0.524
101 | CTTIHYNNMCN [TP53_Y234_Y236N] | 0.486
102 | GESLTYASTTF [C1orf162_Y120] | 2.25
103 | ENFSEYQEISV [HEMGN_Y150_A154S] | 0.594
104 | SSYSRYIMMPN [LEF1_Y114_G113R] | 0.542
105 | GKSDPYHATSG [GJA1_Y247] | 0.386
106 | NVFGNYNNQSS [HNRNPA1_Y318_D314V] | 0.315
107 | VKFLGYPPPEI [KDR_Y357_A352V_YF] | 0.443
108 | GFVEDYRPPFY [ACVRL1_Y421_I417F] | 0.517
109 | RRRLIYRCQVG [NR2E3_Y81] | 0.915
110 | FVHDNYVIWRT [CPS1_Y1450_R1453W] | 0.577
111 | STLEVYRCHPP [IL21R_Y317_S318R] | 0.542
112 | MRTMGYMPREM [CABP5_Y62_T65R] | 0.438

These sequences were tested against Hck (UniProt P08631) in the same assay as above.
Sequence of Hck (P08631 whole entry, looked up): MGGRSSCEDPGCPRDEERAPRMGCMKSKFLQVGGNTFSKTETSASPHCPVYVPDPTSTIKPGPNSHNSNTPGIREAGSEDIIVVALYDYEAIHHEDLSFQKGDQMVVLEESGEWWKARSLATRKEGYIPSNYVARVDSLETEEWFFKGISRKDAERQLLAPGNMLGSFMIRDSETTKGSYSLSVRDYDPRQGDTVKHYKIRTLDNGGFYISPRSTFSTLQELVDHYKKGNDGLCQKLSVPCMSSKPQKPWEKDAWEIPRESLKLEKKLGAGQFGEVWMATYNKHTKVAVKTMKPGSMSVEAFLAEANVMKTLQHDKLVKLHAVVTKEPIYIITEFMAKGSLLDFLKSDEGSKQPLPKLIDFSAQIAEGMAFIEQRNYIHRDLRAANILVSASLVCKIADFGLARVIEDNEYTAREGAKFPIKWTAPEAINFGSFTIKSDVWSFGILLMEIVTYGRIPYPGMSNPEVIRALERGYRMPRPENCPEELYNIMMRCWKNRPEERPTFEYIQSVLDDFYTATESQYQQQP

Row | Sequence | phosphorylation enrichment
113 | AIFEGYALPHA [ACTC1_Y171_P166A_YF] | 0.43
